The text below walks through data of paper PMC6754605 (Proceedings of the National Academy of Sciences of the …, 2019).

The data set deals with the molecule itself. As to the kind of experiment: SEC. (In general: SEC sorts molecules by how far they enter the pores of the column.)

Where a chain is given by its changes, count along the chain named. Names and notes keep the numbering of the source.

B1: mouse SAA3 F24S/M25S double mutant (natural protein, UniProt P04918 19-122, looked up)
chain: QRWVQSSKEAGQGSRDMWRAYSDMKKANWKNSDKYFHARGNYDAARRGPGGAWAAKVISDAREAVQKFTGHGAEDSRADQFANEWGRSGKDPNHFRPAGLPKRY
Turning to B1, the binding result is given as “binds”.

B2: mouse SAA3 W71S/V75S double mutant (natural protein, UniProt P04918 19-122, looked up)
chain: B1 chain with S6F, S7M, W53S, V57S
For the protein B2, the binding result was “binds”.
